Measurements published in PMC5531254.

What was measured:
PIH1D1 [1] = target: PIH1D1 (UniProt Q9NWS0); experiment: anti-FLAG co-IP, MYC blot; settings: reference: FLAG MRE11 wild type
PIH1D1 [2] = target: PIH1D1 (UniProt Q9NWS0); experiment: GST pull-down with FLAG-purified MRE11; settings: reference: FLAG MRE11 wild type

Row | Substance | binding against the reference (PIH1D1 [1]; sites S688,S689) | binding against the reference (PIH1D1 [2]; sites S688,S689) | binding against the reference (PIH1D1 [1]; sites S558,S561) | binding against the reference (PIH1D1 [2]; sites S558,S561)
1 | MRE11 (from UniProt P49959) M3 (S688A/S689A) | weaker | weaker | – | –
2 | MRE11 (from UniProt P49959) M1 (S558A/S561A) | – | – | weaker | weaker
